The term Kd denotes the constant that tells how readily two partners part at equilibrium. A high value points to weaker binding.

Assay [1] has as its target human APRIL (Examples 21-23) (human) (UniProt O75888). Nature of the assay: assay not given (Example 21).
For assay [2], the target named is human BAFF (Examples 21-23) (human) (UniProt Q9Y275). Nature of the assay: assay not given (Example 21).

human APRIL (Examples 21-23) (human), sequence (O75888 105-250 limits assumed): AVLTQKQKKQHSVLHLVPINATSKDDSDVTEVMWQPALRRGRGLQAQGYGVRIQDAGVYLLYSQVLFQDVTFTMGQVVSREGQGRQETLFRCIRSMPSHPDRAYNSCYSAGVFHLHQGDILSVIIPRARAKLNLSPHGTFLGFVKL

B1: BION-1301 (antibody, INN chains, looked up, V domains shown)
VH: QVQLVQSGAEVKKPGASVKVSCKASGYTFTDYTIHWVRQATGQGLEWMGWIYPLRGSINYAQKFQGRVTMTADKSISTVYMELSSLRSEDTAVYFCARHGAYYSNAFDYWGQGTLVTVSS
VL: EIVMTQSPATLSVSPGERATLSCRASESVDNDGIRFLHWYQQKPGQAPRLLIYRASTRATGIPARFSGSGSRTEFTLTISSLQSEDFAVYYCQQSNKDPYTFGGGTKVEIK
With B1, in assay [1], the Kd stood at 0.4 nM.

B2: Benlysta (antibody, INN chains, looked up, V domains shown)
VH: QVQLQQSGAEVKKPGSSVRVSCKASGGTFNNNAINWVRQAPGQGLEWMGGIIPMFGTAKYSQNFQGRVAITADESTGTASMELSSLRSEDTAVYYCARSRDLLLFPHHALSPWGRGTMVTVSS
VL: SSELTQDPAVSVALGQTVRVTCQGDSLRSYYASWYQQKPGQAPVLVIYGKNNRPSGIPDRFSGSSSGNTASLTITGAQAEDEADYYCSSRDSSGNHWVFGGGTELTVLG
In turn, B2 came in with a Kd in assay [2] of 0.0023 nM.

(Values after patent publication US20250042970A1.)
